# Experimental data reported in patent US20230329283A1 (priority 2021, published 2023).
# Like-named read-outs stand apart in the source and are kept apart here.
# Tested on: rabbit red blood cells
# Conditions: 37° C., 1 h, FIG. 6
substance,measurement,setting,value
TrSub (EFGAGKAQCAAAWLQCASGGTLGCGGGAVACQNYRQFQCRAA; the amino acid sequence of the recombinant antimicrobial peptide TrSub),hemolytic activity (hemolysis rate),2MIC concentration,below 10%
same,hemolytic activity (hemolysis rate),MIC concentration,below 10%
